In a protein production outcome set (Wang et al. 2014):

Assay: label from the status in PepcDB records
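Also: failed if final PepcDB status was selected cloned or expressed and not failed if soluble or beyond.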

With “MKRTLYSGVGLLLVGLLFLAFNLLSSLLLRDQQFDLTQQKLYTFSAGTQEVLDSLDEPLNLYLFFSKSRASDLPALRNYARRVEEVLDLYARRSHGNVRLFVIDPLPFSDDEDRAARFGLQAPPIGPNGEAIYFGLAATNPTDGLQVIPFFSPEEEPLLEYDLSRLVQALAQRERTVVGLMSSLPMTGQAPTDGQPGSRPWAMMDKLYQQFDIRTLGLASTEIPAEVSVLMLVHPRQLSEQTQYAIDQFVLRGGKLLAFVDPLSLADADGGKSSDLAPLLRSWGVQLRPDTLLADASFAMIKPNAERRPERNPTWLHLPGDTFPHDNVLTTGLESLNLASVGLLEPLGGASTRFIPLLHSSAHSMPLSLERFRQSSTEQLNATLVPTGERYVLAAKVEGPATSAFPADRGKQGEGLSDSANIHVLLVADTDLLSNPLWLQEQPGHNEPQVWADNDLFVGNALDYLSGSDALIDLRSRGHTKRPFTRVEALRREAGLRAQEQLNALQQSLNDTDRNLRTLQQSMDAGDQEVTPEMEATLRRFIDDKLRIRQQLRQLQFQLNADVERLGEQVKLANTVLLPALLTLFLLLHWSWRSMRRRRG” the protein production was “failed”.
For “MKRVLVLGATGRTGNFVIKELSKYKSIQLIAGLRSQKDKERLPKINAAIETVVIDIADVCSLRKALTDSDIVVQAIRLRGDISENALIQLDQRIHQAFNPSRKTHLVTVGGAGALKLEANQRFWENEYFPRQTLPRGIAHARLRDYLEKSFFNHTWTYLIPPPVYVAEGARTGSYNRYSSAQKEDFFLSKSISYADFALAIGNAVMEEWQGVYLIAEKELEHHHHHH”, the protein production was “failed”.
For “MKSCSRSSSVRLCVRCTGLSLWCCIGHATSVIKSVRNMQSVIGNGYKRSPTGKESRMTPLTSDFLSSSVVFLSAAVIAVPLAQRAGLGSVLGYLLAGIAIGPWGLGLIRDVQAIMHFAEFGVVLLLFLIGLELNPKKLWNLRGPILGLGGAQVVVTTAVLSSVAYLLGVSWQSALVIGMALALSSTAIALRVIEEHGLTRTEAGQSGFAVLLFQDIAVIPMLALLPILAGNSSGDWLNALWMTGGIAALLLGGHFLLNPLFRYIALSGVRELFTVAALLLVVGIALLMQKVGLSMALGTFLAGVILAESEFRHELEIAIDPFKGLLLGLFFISVGMAVDVGLLLVKPLQIMLAVLGLVIVKGLVLYLLARLSGTVAKARSKMAAILSQGGEFAFVIFTAASAEGLLTASQVSFLLVVVSLSMVTTPLLLSAQKYWFARQLNIEENPLTPDVENKEPRVIIVGFGRFGQIVGRLLYANKIKVTILESDASQVRLLRKYGYKVFYGDATNLELLRAAGVEQAEALVVCTDDPEQVITIVELCQQHFPNLKLLARARSRVEAYQLMSLGVQNYTRETFLSALDLGRKALVQLGMHPYQAKRAEEHFHRLDKTMLKELLPQHNEDKQLELRAKEARTELEEIFSREMDSDQLSRRYWEKE”, the protein production was “failed”.
With “MKSEKETIYDYAAELKLLSFKEELECTLSLAAEENWNHLQFLTELLGKESARRRECRRRSRIRSAGFPQMKYLHELVMEDMPKEAQVILPELETLDFIRQGRNLVLYGNPGTGKTHIATALGIKACQQDFTVLFTSVPVLLTQIREAKSAKTLRTLQLRFEKYDLVICDEFGYVSCDKEGGELLFNHLSLRAGKKATIITTNLAFNRWNEIIKDKVLVAAMVDRLTHKAYLVNMTGLSYRLKETQKMRQDKLEHHHHHH” the protein production was “failed”.
In the case of “MKSILSLFSGIGGLCHHGIAAAGLSHKFQVKQFVEISPYSQSRLRHEQPQTPIHSDITTYHCHRGQFDIVAGGLPCQGTSNAGNRQGLDDPRSALWAEQFRIIESDRPAIALIENPTGLLYRGLEQIICDLDSIGYMGEWNCISAQQVGLPHQRKRIFIIAYSNGLFNQVVPAPWSNQIGNHITQVRLSLETRSYQPGISKVASRIPIGVAKNIPGNYDARRAYGLSCSPRQAAVAWKRIDYLCSLLSYQEAS”, the protein production is reported as “failed”.
In the case of “MKSITQLENKKVLVLGLAKSGEAAARLLAKLGAIVTVNDGKAFEENPSAQSLLEEGIKVVCGGHPLELLDENFELMVKNPGIRYDNPMVARALEKEIPVWTEVELAYLVSEAPIIGITGSNGKTTTTTMIADVLNHGGKSGVLSGNIGFPASEVAQSVTNQDTLVMELSSFQLMGIESFHPHIAVITNLMPTHIDYHGSFEEYVAAKWNIQNEMTSDDFIILNFNQDLAKELATQTNAQVVPFSTVEKVDGAYLENGGLYFKGELLMHADELGVPGSHNVENALATIAVAKLSGVSNQAIKETLSSFGGVKHRLQFVDTIDDVKFYNDSKSTNILATQKALSGFDNSKVILIAGGLDRGNEFDELIPDITGLKKMVILGESAPRVKRAADKAGVTYLDAKDVADATRIAFEQASAGDVVLLSPANASWDMYKNFEVRGDEFITTVERLKG”, the protein production is reported as “failed”.
In the case of “MKSKDSPIINEQFWDALFFNGTMPWDRSQTPNELKHYLKRIADKTHSVFIPGCGAAYEVSHFVDCGHDVIAMDYSAEAVNLAKSQLGQHQDKVMLGDVFNADFSREFDVIYERAFLAALPREIWGDYFAMIERLLPSNGLLVGYFVISDDYRSRFPPFCLRSGEIEQKLEANFHLIESTPVTDSVDVFKGKEQWMVWQKK”, the protein production is reported as “failed”.
In the case of “MKSKRGFTLLEVLVALAIFATAAISVIRSVSQHINTVNYLEEKMFAAMVVDNQMAQVMLNPQSLAAREGSEQMAGRTWYWKLSPVKTADNLLKAFDVSVATEKGATPVVTVRSYVAN”, the protein production is reported as “failed”.
With “MKSLKGIIYAMISSGTFGLIPLFTIPLMGNMEMNESNILFYRFLFSTLMMGAVCLLHKSTLKINMKHLISIIGLGALYALTALFLIYSYHYITSGVATTIHFLYPICVSFLMVVFFKEQKSKSLFLAASLSLIGVALMCWSGGGSIRLMGIGLAALTILTYGIYIVALNQLDIGKLPAEVLTFYVLLGGCVIFFIYSLFTAGISSIPSTKAGFYILALAFLSTVISDLTLILAVKYAGSTTTAILGSMEPLVAVVVGVLVFSEHFTLQSLIGLLLILMSVIIVILADQQKKSKRITEQKIIKPH” the protein production was “failed”.
In the case of “MKSLYQMNHIGHPFMYPKMDITKMNKTNNQNIPNKAHNPNNSSNMNTTKKSYGTSLNYIKKENSSKNSIYNNYEYLDASHLEMLDLNKNIKNILPKPMKPSLDLESLCKETTSTMKKSKMHCMKSGENQNKNVKHFYEMGTPQIIGTYIQPLHHNTNSFNQNNFPKNHMFPLLPSSPFFQPPNFRTNLTQASSTFIPLPHANKSTNIYGMPSYLIPENKPQNLTVTVVPNKDKDSIEKEAKHLKALLDSSSKGIVNSTPDYQKIQPSTLSNYNDKESDFSFGKNDNYEHAEYSEQNCNDENDTENNYNSFVNEFYDPHNSISYNNVNEFLKNSNQKNQQHAFRLESNEEVARKVHKEFTYPKGTSLNKINILNQNYKEEGEQQQENETKNNMNMQERDEERQTMKKDSSIPKRTQLSKKKEHNNNNIVLKKHEPSTCFKNPKTYINIRLGKPKKLYITNSSDPIDKKLSEWHNTHNSQIGWKKYRRGVYTFGKTEVILSLVHDKIIVKKINGKHIKDNLLTVEKFVSLNELYEIQQEENDNMLKKRGVKFFNF”, the protein production is reported as “failed”.
With “MKSRPRLLLVYPATHKLGWVRRFQLPSLSLKQVAAVTPPEWEVVMADEVHEDVPFGEKFDLVGITAMTHQAVRAYEIADRFRAQGVPVVLGGIHPTVLPEEAQAHADAVLIGEAEPVWAKLLDDFLAGRLAPLYRAPIPTDDRLVIPWSRRDILAGRQYLTTQTVQASRGCPYDCPFCTVTPYFGRTFRYRNPDDVLAELRSFEGKLMVFVDDNILGDPVRAKPILEGMAGMNLRWGGQANLRFAEDPELVKLVARSGCIGIFVGIESVTGPHANHAKTGNGSSQIDLVKRVRDAGIVLEASMIFGFDDHDEGIFERTVRFLEECAPSIPTFNVLTPYPGTSLFKQFDREGRLLHKDWSRYDHGQVVFRPKQMTPERLYRGWQEARWEAYRLPAIASRVMKGKGKLVNLAYNFLRRGGIERPDRIVHIREVAEP” the protein production was “failed”.
In the case of “MKSSKAEKELTHQYVLNDSLHQLFDAVNIVSVQGYDEQRRVIYWNVGSELLYGYTQKEALGQKLEDLIIPKPMREIVIGAHSDWIKKGIEIPASEITLCHKNGNDVNVFSSHALFTNQYNKKQMYCIDVNLA”, the protein production is reported as “failed”.
For “MKSVSTWALSFFSDELSRRAVSDCYLWTTAISLLLILLLHIFFSTKFRFFTSAPSSSSSSSSSSSPSTESVPANSQSRISKLVSDEDLKFLIENLEEETNDSTEIWEHVIHKSNDRISYSAKRCKPKDGGGPMKYLSVTVFEGFSAEIVRDFYMDNDYRKLWDKTVVEHEQLQVDSNTGIEIGRTIKKFPLLTSREYVLAWRLWQGKEKKFYCFTKECDHNMVPQQRKYVRVSYFRSGWRIRQGNILSTFDTYLTDTFDTLAAVPGRNACEIKMFHQENAGLNVEMAKLAFSKGIWSYVCKMENALCKYIATSHRTQGPILSAVTLMKEVPSELETGTDNVTGSMETSSGEGVLSHVVAAKQKKKMRKPSTKLIAKGLVLVGGAICLSRGPSALGAKVALAYLLTKLNKRGTSLNQTTQTTTI”, the protein production was “failed”.
For “MKSWIVKEIKINGLSYFGPLIFTVLPIAERIYKISLNSYIMINYLILVIFLSFICTYLVLSNLFNGIMYTLTYTVGISPKEIILTRLFLFSTIPVLPIAMALWMTSSLTTLAKFIIQIYILVLMSTIIGIIFKNDIIALIMDFIISALGLSVKINFLFPFLSGQLNPLSGIIVVLLLALTIYLLSNVELQKVERV”, the protein production was “failed”.
For “MKSYMTQRLDEYRDGNEDKGRLLVSCPDQPGIVSAVSAFLFEHGANIIESNQYTTDPEGGRFFLRIEFDCAGIREKKSSLQAAFASVAEKFDMTWSLTLASELKRVAIFVSKNLHCLHELIWEWQTGNLMAEIAVVISNHEEARELVERLNIPFHYMKANKDIRAEVEKKQLELLEQYDVDVIVLARYMQILTPDFVSAHPNRIINIHHSFLPAFIGANPYKRAYERGVKLIGATSHYVTNDLDEGPIIEQDIKRVDHRDNAETLKNIGRTIERSVLARAVKWHLEDRVIVHENK”, the protein production was “not failed”.
With “MKSYVLGEFGAEAALLDAARTLRARGGATLDLHSPYPLHGAEEALGLRKSTVPLVALVAGITGAVSGYLLQWYTVGYAWPLNVGNRPPHSAPAFIPVTFELGVLFSALAIFVGLLAVYFGFPRVHHPVFEVEAFRSASIDGLWLSAEVEAGDADAVAAELRRLGARLVSVVPEGK” the protein production was “failed”.
In the case of “MKTAIVTDSASYLSAADVEKYHIHVVPITVIFGHQTYLENVEITSKEFYERMRTAPELPTTTQITLGQMQTTYDQLAKAGYDAVISIHLSSGITSFITNLESYLPNVTNIKVYPFDSLITAGGEAYMVLLAAKLVTEGYSPEQVIAQLKKIRETTGVYFVVDNLSHLVRTGRLSNASGLVGNLLRIKPVLTFQDGKIVAIQKERTMRRAYAAIKAKLAAEIAAVDYPLRVTIENGNNPKLQAEWTADLKASFPDLTIDEGEIGPVVGVHVGEGVMGLIWARDWEKWTI”, the protein production is reported as “failed”.
For “MKTAQHETISNREFYFVLYMMLLYVTGWVIDVNGLFLSSYFNLAGEIMLPLVGGIVGLFIMSVNKQQTK”, the protein production was “failed”.
For “MKTARPGKLKRQEEQASFISWRFALLCGCILLALVGLIMRTAYLQVINPDKLVREGDMRSLRVQEVPTARGMISDRSGRPLAVSVPVNAVWADPKELIEQGGISLDTRWKALSDALEIPLDQLATRINANPKGRFVYLARQVNPAIGDYIRKLKLPGIHLRQESRRYYPAGQVMAHIIGVTNIDGQGIEGVEKSFDRWLTGQPGERTVRKDHYGRVIEDISSVDSQAAHNLVLSVDERLQALVYRELNNAVAFNKAESGTAVLVDVNTGEVLAMANSPSYNPNNLTGTPKDAMRNRAITDIFEPGSTVKPMVVMTALQHGVVKENSVLNTLPYFVNGHQIKDVARYAELSVTGILQKSSNVGVSKLALAMPSSALVDTYSRFGFGKATNLGLVGESSGLYPKKQRWSDIERATFSFGYGLMVTPLQLARVYATIGSMGVYRPLSITRVDPPVAGERIFPEPLVRTVVHMMESVALPGGGGTKAAIKGYRIAIKTGTAKKVGPDGKYMDRYLAYTAGVAPASNPRFALVVVINDPQAGKYYGGAVSAPVFGAIMGGVLRTMNIEPDALPTGDKSELVINTKEGSGGRS”, the protein production was “not failed”.
